Data from patent US20220340642A1 (Kyowa Kirin, published 2022).

T1: soluble recombinant of cynomolgus monkey TL1A (His6, GS linker, Leu72-Leu251)
T1 chain: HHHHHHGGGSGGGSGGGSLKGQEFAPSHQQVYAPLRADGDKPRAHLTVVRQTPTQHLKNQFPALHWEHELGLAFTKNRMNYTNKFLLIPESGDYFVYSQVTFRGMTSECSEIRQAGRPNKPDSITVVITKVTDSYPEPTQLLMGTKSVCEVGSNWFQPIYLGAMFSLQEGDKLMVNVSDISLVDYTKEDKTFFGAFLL

T2: soluble recombinant of cynomolgus monkey FasL (His6, Pro133-Leu280) (UniProt P63308 133-280)
T2 chain: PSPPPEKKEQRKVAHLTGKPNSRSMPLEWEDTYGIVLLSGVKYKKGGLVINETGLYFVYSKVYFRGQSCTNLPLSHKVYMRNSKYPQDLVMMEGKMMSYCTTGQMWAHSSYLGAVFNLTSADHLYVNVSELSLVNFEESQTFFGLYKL

T3: soluble recombinant of cynomolgus monkey LIGHT (His10, GS linker, Asp74-Val240)
T3 chain: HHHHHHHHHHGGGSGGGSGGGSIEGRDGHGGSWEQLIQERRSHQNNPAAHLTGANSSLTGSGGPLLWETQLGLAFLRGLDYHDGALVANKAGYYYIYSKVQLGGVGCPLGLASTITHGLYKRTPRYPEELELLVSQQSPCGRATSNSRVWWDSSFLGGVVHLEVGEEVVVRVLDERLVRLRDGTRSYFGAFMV

T4: soluble recombinant of human LIGHT (His10, GS linker, Asp74-Val240)
T4 chain: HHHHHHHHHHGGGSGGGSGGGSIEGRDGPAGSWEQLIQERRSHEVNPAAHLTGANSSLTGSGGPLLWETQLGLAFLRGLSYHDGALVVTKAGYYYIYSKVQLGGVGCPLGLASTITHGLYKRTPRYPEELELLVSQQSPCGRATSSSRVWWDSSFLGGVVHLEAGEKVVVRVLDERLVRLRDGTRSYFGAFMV

T5: soluble recombinant of human TL1A (His6, GS linker, Leu72-Leu251) (human, UniProt O95150 72-251)
T5 construct: also called His6-TL1A; hTL1A
T5 sequence: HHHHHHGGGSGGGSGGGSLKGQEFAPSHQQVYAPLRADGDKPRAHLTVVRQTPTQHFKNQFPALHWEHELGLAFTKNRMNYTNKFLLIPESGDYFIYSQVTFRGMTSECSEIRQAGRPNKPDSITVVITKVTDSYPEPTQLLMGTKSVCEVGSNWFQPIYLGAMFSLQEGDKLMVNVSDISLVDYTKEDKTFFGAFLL

T6: Human His6 Fas Ligand/TNFSF6 (Cell Signaling Technology, Inc.) (human, UniProt P48023 133-281)
T6 construct: Bought; confirmed as a trimer by SEC-MALS; also called recombinant human His6 Fas Ligand; soluble human FasL trimer
T6 sequence: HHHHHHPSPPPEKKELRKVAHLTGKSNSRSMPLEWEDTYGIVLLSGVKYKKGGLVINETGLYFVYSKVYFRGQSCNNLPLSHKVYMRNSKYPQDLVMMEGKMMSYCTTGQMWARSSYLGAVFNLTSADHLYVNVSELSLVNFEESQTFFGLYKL

T7: soluble recombinant of cynomolgus monkey TL1A (His6, GS linker, Leu72-Leu251) (cynomolgus monkey)
T7 construct: also called His6-cynoTL1A
T7 chain: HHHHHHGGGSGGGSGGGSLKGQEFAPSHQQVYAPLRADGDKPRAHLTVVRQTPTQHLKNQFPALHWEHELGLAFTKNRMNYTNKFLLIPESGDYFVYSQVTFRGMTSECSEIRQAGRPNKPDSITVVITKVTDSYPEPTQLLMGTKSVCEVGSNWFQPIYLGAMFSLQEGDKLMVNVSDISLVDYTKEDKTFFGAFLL

T8: soluble recombinant of cynomolgus monkey FasL (His6, Pro133-Leu280) (cynomolgus monkey, UniProt P63308 133-280)
T8 construct: also called His6-cynoFasL
T8 sequence: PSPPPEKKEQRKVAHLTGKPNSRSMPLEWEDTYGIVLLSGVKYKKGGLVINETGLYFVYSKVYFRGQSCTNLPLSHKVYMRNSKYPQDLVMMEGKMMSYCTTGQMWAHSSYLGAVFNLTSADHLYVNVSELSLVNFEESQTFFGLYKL

T9: FLAG-cynoLIGHT (FLAG tag, cynomolgus monkey LIGHT Asp74-Val240) (cynomolgus monkey)
T9 construct: SEC trimer fraction; also called soluble cynomolgus monkey LIGHT trimer
T9 chain: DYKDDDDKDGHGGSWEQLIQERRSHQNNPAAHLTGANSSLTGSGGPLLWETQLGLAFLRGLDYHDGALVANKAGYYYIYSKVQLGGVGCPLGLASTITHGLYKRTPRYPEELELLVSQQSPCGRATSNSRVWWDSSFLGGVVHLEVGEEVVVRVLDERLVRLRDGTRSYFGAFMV


Experiments:
[1] = molecular target: T1, soluble recombinant of cynomolgus …; test: BIAcore SPR
Procedure, shortened: (§1)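 Dissociation constants (Kd, nM) come from surface plasmon resonance measurements on a BIAcore T-100 or T-200 instrument (GE Healthcare) in HBS-EP+ Buffer. Each test molecule was analysed for binding to soluble recombinant His-tagged human or cynomolgus monkey LIGHT, TL1A or FasL.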

[2] = molecular target: T2, soluble recombinant of cynomolgus …; test: BIAcore SPR
Procedure, shortened: as §1

[3] = molecular target: T3, soluble recombinant of cynomolgus …; test: BIAcore SPR
Procedure, shortened: as §1

[4] = molecular target: T4, soluble recombinant of human LIGHT …; test: BIAcore SPR
Procedure, shortened: as §1

[5] = molecular target: T5, soluble recombinant of human TL1A …; test: SPR, binder captured on Protein A chip
Protocol: (§2) The binding activity to human and cynomolgus monkey DcR3 ligand trimers were analyzed by the SPR method. BIAcore T-100 (GE Healthcare) was used for measurement of the binding activities to human LIGHT, cynomolgus monkey LIGHT, human TL1A and cynomolgus monkey TL1A, and BIAcore T-200 (GE Healthcare) was used for measurement of the binding activities to human FasL and cynomolgus monkey FasL. As the buffer, HBS-EP+Buffer was used.
(§3) Various DcR3 variants were injected into Series S Sensor Chip Protein A (GE Healthcare) at 10 μL/min for 30 seconds and captured. Meanwhile, the buffer containing no protein was injected into a reference flow cell. Thereafter, as an analyte, each human DcR3 ligand trimer or each cynomolgus monkey DcR3 ligand trimer diluted to 0.08 to 20 nmol/L was injected. A human LIGHT trimer, a human TL1A trimer or each cynomolgus monkey DcR3 ligand trimer was injected at the flow rate of 30 μL/min for 2 minutes to monitor the binding, and subsequently the buffer was injected for 5 minutes to monitor dissociation. A human FasL trimer was injected at 30 μL/min for 1 minute to monitor the binding, and subsequently the buffer was injected for 3 minutes to monitor dissociation. Then, 3 mol/L magnesium chloride was injected at 30 μL/min for 1 minute to perform a regeneration reaction.

[6] = molecular target: T10, FLAG-LIGHT (FLAG tag, human LIGHT Asp74-Val240) (human, UniProt O43557 74-240); test: SPR, binder captured on Protein A chip
T10 construct: SEC trimer fraction; also called soluble recombinant FLAG-LIGHT trimer; soluble human LIGHT trimer
Protocol: as §2, §3

[7] = molecular target: T6, Human His6 Fas Ligand/TNFSF6 (Cell …); test: SPR, binder captured on Protein A chip
Protocol: as §2, §3

[8] = molecular target: T7, soluble recombinant of cynomolgus …; test: SPR, binder captured on Protein A chip
Protocol: as §2, §3

[9] = molecular target: T8, soluble recombinant of cynomolgus …; test: SPR, binder captured on Protein A chip
Protocol: as §2, §3

[10] = molecular target: T9, FLAG-cynoLIGHT (FLAG tag, cynomolgus …); test: SPR, binder captured on Protein A chip
Protocol: as §2, §3

Binder	Kd [1] [nM]	Kd [2] [nM]	Kd [3] [nM]	Kd [4] [nM]	binding result [5]	binding result [6]	binding result [7]	binding result [8]	binding result [9]	binding result [10]
chimera A-E57K-Fc (Eg1S YTE) (Fc fusion) ETFPPKYLHYDEETSHQLLCDKCPPGTYLKQHCTAKWKTVCAPCPPRHYTQFWNYLKRCRYCNVLCGEREEEARACHATHNRACRCRTGFFAHAGFCLEHASCPPGAGVIAPGTPSQNTQCQPCPDGFFSNETSSKAPCRKHTNCSVFGLLLTQKGNATHDNICSGNSESTQKEPKSSDKTHTCPPCPAPELLGGPSVFLFPPKPKDTLYITREPEVTCVVVDVSHEDPEVKFNWYVDGVEVHNAKTKPREEQYNSTYRVVSVLTVLHQDWLNGKEYKCKVSNKALPAPIEKTISKAKGQPREPQVYTLPPSRDELTKNQVSLTCLVKGFYPSDIAVEWESNGQPENNYKTTPPVLDSDGSFFLYSKLTVDKSRWQQGNVFSCSVMHEALHNHYTQKSLSLSPGK	0.31	1.1	0.26	0.38	binds	binds	binds	binds	binds	binds
chimera A-E57R-Fc (Eg1S LALAGANA) (Fc fusion) ETFPPKYLHYDEETSHQLLCDKCPPGTYLKQHCTAKWKTVCAPCPPRHYTQFWNYLRRCRYCNVLCGEREEEARACHATHNRACRCRTGFFAHAGFCLEHASCPPGAGVIAPGTPSQNTQCQPCPDGFFSNETSSKAPCRKHTNCSVFGLLLTQKGNATHDNICSGNSESTQKEPKSSDKTHTCPPCPAPEAAGAPSVFLFPPKPKDTLMISRTPEVTCVVVDVSHEDPEVKFNWYVDGVEVHNAKTKPREEQYNSTYRVVSVLTVLHQDWLNGKEYKCKVSNKALPAPIEKTISKAKGQPREPQVYTLPPSRDELTKNQVSLTCLVKGFYPSDIAVEWESNGQPENNYKTTPPVLDSDGSFFLYSKLTVDKSRWQQGNVFSCSVMHEALHAHYTQKSLSLSPGK	0.32	1.1	0.29	0.38	binds	binds	binds	binds	binds	binds
